Results: patent US20250304677A1 (VIB VZW, published 2025)

Legend:
[1] = target: T1, mouse folate receptor alpha (mFRα), recombinant protein (mouse, UniProt P35846 25-232); experiment: BLI tandem binning on mouse FRα; competitor (1st association) 2HFO19
T1 construct: Bought recombinant proteins (e.g. biotinylated, Acro Biosystems FO1-M82E9); also called mFOLR1; Ms FOLR1
From the text: (§1) VHHs that share high sequence identity in the CDR3 region, a VHH family, are derived from the same B-cell lineage and diverged from each other due to somatic hypermutation or affinity maturation. Typically, VHHs from the same family recognize the same epitope on the target, but may differ in other characteristics ^{∘}De Genst et al 2006 PNAS 103:4586-4591; De Gents et al 2005 J Biol Chem 280:14114-14121). To study whether the VHHs from the different families bound different epitopes, epitope binning was performed using a tandem binding approach in BLI. One VHH from each family was allowed to bind to mouse FRα on the biosensor, followed by binding of the second VHH ^{∘}Table 4).
(§2) Competition between VHHs from different complementarity determining region ^{∘}CDR) 3 families was assessed in a tandem binding assay using biolayer interferometry ^{∘}BLI). Streptavidin biosensors were loaded with biotinylated mouse FRα ^{∘}Acro Biosystems, Cat.nr. FO1-M82E9), followed by binding of anti-FRα VHHs ^{∘}VHH in first association). The biosensors were then transferred to a solution containing a second VHH mixed 1:1 with the first VHH ^{∘}VHH in second association). Using the FortéBio Data Analysis Software the absolute additional binding signal for the second association on top of the first association was calculated. The data were normalized per VHH in first association using the following formula: ^{∘}signal-self)/^{∘}maximum-self) with self being the value of the VHH in first association in combination with the same VHH in second association.

[2] = target: T1, mouse folate receptor alpha (mFRα), …; experiment: BLI tandem binning on mouse FRα; competitor (1st association) 2HFO42
From the text: as §1, §2

human FRα Q141R = target: T2, human FRα Q141R (human, UniProt P15328 25-234); experiment: flow cytometry on transiently transfected HEK293T cells, mouse anti-His then anti-mouse-PE (B575-A)
T2 construct: The entry is the mutant itself
From the text: (§3) FIGS. 2A-2C illustrates the epitope mapping of anti-FOLR1 VHHs on human FOLR1/2 chimeras. ^{∘}FIG. 2A) To narrow down the epitope of the anti-folate receptor alpha ^{∘}FOLR1) VHHs, chimeric constructs were generated by exchanging a sequence block in human FOLR1 ^{∘}hFOLR1) by the corresponding human folate receptor beta ^{∘}hFOLR2) sequence, since the VHHs are able to bind both hFOLR1 and mouse FOLR1 ^{∘}mFOLR1; SEQ ID No.97), but not hFOLR2. These regions are indicated by the green arrows. Chimera 1 SEQ ID No. 67) and 7 ^{∘}Ch7; SEQ ID No. 73) also contain an additional residue change at a separate location. […] HEK293T cells were transfected with hFOLR1, hFOLR2, one of the hFOLR1/2 chimeric constructs ^{∘}FIG. 2B) or single residue mutants ^{∘}FIG. 2C). Binding of VHHs 2HFO19, 2HFO42, 3MFR60, and a mouse anti-FOLR1 monoclonal antibody ^{∘}mAb) was detected using a mouse anti-His tag antibody for the VHHs followed by an anti-mouse-phycoerythrin antibody. All VHHs were tested at a concentration of 200 nM and untransfected cells were used as a negative control. The colors used for the VHHs represent the different CDR3 families; blue: family 1, green: family 3, grey: family 10.
(§4) To further narrow down which specific residues might play a role, single residues of human FRα in the chimera 4 region that are not conserved between FRα and FRβ were mutated to their human FRβ counterpart. While all VHHs retained binding to human FRα E140Q SEQ ID No. 77), R147H ^{∘}SEQ ID No. 79), and Y150H ^{∘}SEQ ID No. 80) ^{∘}data not shown), binding was completely abolished when the Q141R mutation ^{∘}SEQ ID No. 78) was introduced ^{∘}FIG. 2C). To verify the role of this residue in the binding of the VHHs, the R135 residue in human FRβ was replaced by glutamine ^{∘}SEQ ID No. 81) and binding of the VHHs was analyzed. […] In addition to having ^{∘}partially) overlapping epitopes, the VHHs thus all require residue Q141 for binding.

[3] = target: T3, human folate receptor beta (FRβ) (human, UniProt P14207 17-230, limits assumed); experiment: as above
T3 construct: also called hFOLR2; human FOLR2
From the text: as §3, §4

[4] = target: T4, mouse folate receptor alpha expressed on transfected HEK293T cells (mouse, UniProt P35846 25-232); experiment: flow cytometry on HEK293T cells overexpressing mouse FOLR1, His tag detection, PE MFI, non-linear fit
T4 construct: also called cell-expressed mouse FRα
Procedure: (§5) Data were normalized and technical replicates were plotted as mean±SD. Data were fitted by non-linear regression and the half-maximal effective concentration ^{∘}EC50) was calculated using GraphPad Prism 9 software. ^{∘}FIG. 1C and FIG. 1D) Binding affinity determination of anti-FOLR1 VHHs for native FOLR1. Mouse ^{∘}FIG. 1C) or human FOLR1 FIG. 1D) was overexpressed on HEK293T cells and binding of the anti-FOLR1 VHHs was assessed using flow cytometry. The mean fluorescence intensity ^{∘}MFI) of the phycoerythrin signal was plotted for each VHH concentration. Data were fitted by non-linear regression using GraphPad Prism 9 software. ^{∘}FIG. 1E) Determination of the competition of representative family members with folic acid ^{∘}FA) using ELISA. Mouse FOLR1 was coated on the plate and was pre-incubated with or without 100 μM FA before adding the VHHs. Data were fitted by non-linear regression using GraphPad Prism 9 software.

[5] = target: T5, human folate receptor alpha expressed on cells (transfected HEK293T, HeLa, MCF7, MDA-MB-231) (human, UniProt P15328 25-234); experiment: flow cytometry on HEK293T cells overexpressing human FOLR1, His tag detection, PE MFI, non-linear fit
T5 construct: HEK293T transiently transfected with human FOLR1; also called native human FRα; cell-expressed human FOLR1
Procedure: as §5

T2 sequence (P15328 25-234 Q141R limits assumed): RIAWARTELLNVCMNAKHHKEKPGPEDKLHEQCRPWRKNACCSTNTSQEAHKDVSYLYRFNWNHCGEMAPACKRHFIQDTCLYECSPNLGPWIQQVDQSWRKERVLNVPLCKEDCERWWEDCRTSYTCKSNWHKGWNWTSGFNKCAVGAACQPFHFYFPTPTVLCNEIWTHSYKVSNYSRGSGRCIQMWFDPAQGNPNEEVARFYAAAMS
T1 sequence (P35846 25-232 limits assumed): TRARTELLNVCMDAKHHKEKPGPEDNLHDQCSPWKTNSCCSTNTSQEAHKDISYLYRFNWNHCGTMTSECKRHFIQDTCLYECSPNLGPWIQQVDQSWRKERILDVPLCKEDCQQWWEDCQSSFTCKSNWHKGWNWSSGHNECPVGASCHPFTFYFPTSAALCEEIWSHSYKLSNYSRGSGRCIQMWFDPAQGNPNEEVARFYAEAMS
T4 sequence (P35846 25-232 limits assumed): as above
T3 sequence (P14207 17-230 limits assumed): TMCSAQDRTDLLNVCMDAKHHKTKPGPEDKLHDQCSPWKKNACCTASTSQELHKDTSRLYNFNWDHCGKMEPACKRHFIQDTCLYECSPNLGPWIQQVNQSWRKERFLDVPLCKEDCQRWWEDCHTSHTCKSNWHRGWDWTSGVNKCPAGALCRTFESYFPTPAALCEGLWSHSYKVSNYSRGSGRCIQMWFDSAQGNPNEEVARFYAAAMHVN
T5 sequence (P15328 25-234 limits assumed): as the sequence (P15328 25-234 Q141R limits assumed) above, with R117Q counted along it

Row | Binder | normalized additional binding in 2nd association [1] [%] | normalized additional binding in 2nd association [2] [%] | binding result (human FRα Q141R) | binding result [3] | EC50 [4] [nM] | EC50 [5] [nM]
1 | VHH 2HFO19 (family 1) (VHH, also called Nb19) VHH: QVQLQESGGGLVQPGGSLRVSCAASGFPFSTVYMSWVRQAPGKGLEWVSGINNDGGVIDYADSVKGRFTISRDNAKNTLYLQLNSLKPEDTALYFCARGRSFVATLSSSLRGQGTQVTVSS | 0 | 12 | no binding (tested: 200 nM) | no binding (tested: 200 nM) | 1.4 | 4.5
2 | VHH 2HFO42 (family 3) (VHH, also called 2HF042; Nb42) VHH: QVQLQESGGGLVQAGGSLRLSCAASGSGFSGMIMGWYRQVPGKQRELVATVTSHGTTNYADSVKGRFTISRDNAKNTVLLQMNSLKPEDTAVYYCNAHFPGIYWGKGTQVTVSS | 1 | 0 | no binding (tested: 200 nM) | no binding (tested: 200 nM) | 1.2 | 26.4
3 | VHH 3MFR60 (family 10) (VHH) VHH: QVQLQESGGGLVQAGGSLRVSCAASGIIFSMNGMGWFRQAPGKQRELVASITSGGSTKYADSVKGRFTISRDNAKNTVYLQMNSLKPEDTAVYYCNIQFGSRWSTYWGQGTQVTVSS | 6 | 34 | no binding (tested: 200 nM) | no binding (tested: 200 nM) | 1.5 | 10.1
